Experimental data reported in patent publication US12630630 (SHANGHAI HENLIUS BIOTECH, dated 2026).
Residue numbers refer to the chain shown, from its start. One block for each binder: values may come before it.

Target: T1, CD47 on human cells (Raji, Jurkat, red blood cells) (human, UniProt Q08722 19-311)
T1 construct: Endogenous CD47 on Raji, Jurkat and red blood cells; also called IAP; MER6
Experiment: flow cytometry competition: antibody and a fixed concentration of biotin-human SIRPα-Fc co-incubated with CD47-expressing cells (Jurkat in Example 2; the legend also names Raji), streptavidin-PE
Protocol: Example 2. […] CD47-expressing cells (Jurkat) (1E5 cells/well) were washed and resuspended in FACS buffer (1×PBS with 2% FBS). […] Flow cytometric analyses were performed using the Cytomics FC 500 (Beckman Coulter Inc.).
IgG isotype control (an anti-PD1 antibody) were used as a negative control.

IC50 (read off the curve): ~1 µg/mL
B1: Clone M1 (antibody, human IgG4 S228P, lambda, V domains shown)
VH: QVQLQQWGAGLLKPSETLSLTCAVYGGSFSGYYWSWIRQPPGKGLEWIGEINHSGSTNYNPSLKSRVTISVDTSKNQFSLRLSSVTAADTAMYYCARFTGRPYYGMDVWGQGTTVTVSS
VL: LSYELTQPPSVSATPGQRVTISCSGSESNIGSHKVKWYQQFAGAAPRLLIHGNDQRRSGVPDRFSGSKSGTSASLAISGLQSEDEADYYCAAWDDSLNGRVFGGGTKLTVLG
notes: also called antibody clone M1

IC50 (read off the curve): ~0.2 µg/mL
B2: Clone M1 #46 (antibody, human IgG4 S228P, lambda, V domains shown)
VH: B1 VH with T99S
VL: B1 VL with N98Y

IC50 (read off the curve): ~0.06 µg/mL
B3: Clone M1 #11 (antibody, human IgG4 S228P, lambda, V domains shown)
VH: B1 VH with T99H
VL: B1 VL with S58R, N98Y

IC50 (read off the curve): ~0.08 µg/mL
B4: Clone M1 #21 (antibody, human IgG4 S228P, lambda, V domains shown)
VH: B1 VH with H53Q
VL: B1 VL with R57F, N98Y
